Measured values: PMC3900457

B1: wild-type ecdysone receptor DNA binding domain (EcRDBDWT) [Drosophila melanogaster] / itself (parent)
chain: APRVQEELCLVCGDRASGYHYNALTCEGCKGFFRRSVTKSAVYCCKFGRACEMDMYMRRKCQECRLKKCLAVGMRPECVVPENQCAMKRREKKAQKEKDKMTTSPSSQHG
B2: wild-type ecdysone receptor DNA binding domain (EcRDBDWT) [Drosophila melanogaster] / ultraspiracle DNA binding domain (UspDBD) [Drosophila melanogaster] (parent)
chain 1: B1 chain
chain 2: NHPLSGSKHLCSICGDRASGKHYGVYSCEGCKGFFKRTVRKDLTYACRENRNCIIDKRQRNRCQYCRYQKCLTCGMKREAVQEERQ

Variants of: B1
Assay: EMSA
Details: with itself; total protein 50 nM; homodimer complex (CIIE) on hsp27pal DNA probe; parent: 19; read off a plot

| Variant | response (% hsp27pal bound) |
| --- | --- |
| chain 1 L24R M57W L66F | 36 |
| chain 1 L24R M57W | 22 |
| chain 1 M57W L66F | 31 |
| chain 1 L24R L66F | 20 |

Same assay, conditions: with itself; total protein 200 nM; homodimer complex (CIIE) on hsp27pal DNA probe; parent: 44; read off a plot

| Variant | response (% hsp27pal bound) |
| --- | --- |
| chain 1 C69A | 39 |
| chain 1 V72M | 23 |
| chain 1 V72E | 7.4 |
| chain 1 L66F | 47 |
| chain 1 L24R | 45 |
| chain 1 M57W | 42 |

Variants of: B2
Assay: EMSA
Details: with ultraspiracle DNA binding domain (UspDBD) [Drosophila melanogaster]; equimolar mixture of EcRDBD and UspDBD, total protein 50 nM; heterodimer complex (CIIUE) on hsp27pal DNA probe; parent: 42; read off a plot

| Variant | response (% hsp27pal bound) |
| --- | --- |
| chain 1 L24R L66F | 39 |
| chain 1 L24R M57W | 45 |
| chain 1 L24R M57W L66F | 57 |
| chain 1 M57W L66F | 51 |

Same assay, conditions: with ultraspiracle DNA binding domain (UspDBD) [Drosophila melanogaster]; equimolar mixture of EcRDBD and UspDBD, total protein 200 nM; heterodimer complex (CIIUE) on hsp27pal DNA probe; parent: 62; read off a plot

| Variant | response (% hsp27pal bound) |
| --- | --- |
| chain 1 C69A | 55 |
| chain 1 L24R | 58 |
| chain 1 L66F | 64 |
| chain 1 M57W | 61 |
| chain 1 V72E | 42 |
| chain 1 V72M | 57 |
